B1: erb_scFv (scFv, not shown: small tags and cut ends)
scFv: MAEVQLLESGGGLVQPGGSLRLSCAASGFTFSSYAMSWVRQAPGKGLEWVSDIGASGSATSYADSVKGRFTISRDNSKNTLYLQMNSLRAEDTAVYYCAKSTTTFDYWGQGTLVTVSSGGGGSGGGGSGGGGSTDIQMTQSPSSLSASVGDRVTITCRASQSISSYLNWYQQKPGKAPKLLIYDASALQSGVPSRFSGSGSGTDFTLTISSLQPEDFATYYCQQYADYPTTFGQGTKVEIKR
notes: Made in NS0 cells for the SPR work
B2: erb_scFv-Fc (Fc fusion)
chain: MAEVQLLESGGGLVQPGGSLRLSCAASGFTFSSYAMSWVRQAPGKGLEWVSDIGASGSATSYADSVKGRFTISRDNSKNTLYLQMNSLRAEDTAVYYCAKSTTTFDYWGQGTLVTVSSGGGGSGGGGSGGGGSTDIQMTQSPSSLSASVGDRVTITCRASQSISSYLNWYQQKPGKAPKLLIYDASALQSGVPSRFSGSGSGTDFTLTISSLQPEDFATYYCQQYADYPTTFGQGTKVEIKR
notes: not shown: Fc region

Biological target: T1, purified recombinant extracellular domain of EGF receptor (EGFR-ECD; Research Diagnostics, Inc.) (UniProt P00533 25-645, limits assumed)
T1 construct: extracellular domain; Bought protein
Test: SPR (BIAcore X), EGFR-ECD immobilized on C1 chip, 1:1 Langmuir fit
Experimental: Each antibody was injected at indicated concentrations and flowed over a surface chip with immobilized EGFR extracellular domain at a flow rate of 10 μl/min.
The surface was regenerated by injection of 5 μl of 10 mM glycine-HCl, pH 3.5. Sensorgrams were obtained at each concentration and were evaluated using the program, BIA Evaluation 3.2. Binding data were titled with a 1:1 Langmuir binding model to calculate the equilibrium dissociation constant, KD, which was defined as the ratio of dissociation rate (koff)/association rate (kₒₙ).

Binder | Kd [nM] | koff [s⁻¹] | kon [M⁻¹ s⁻¹]
B1 | 4960 | 0.0741 | 15000
B2 | 104 | 0.00944 | 90900
